Data as given in IntAct's records for PubMed 16996049.

Target: par6_caeel par-6 (UniProt Q9NAN2)
Sequence (Q9NAN2 whole entry): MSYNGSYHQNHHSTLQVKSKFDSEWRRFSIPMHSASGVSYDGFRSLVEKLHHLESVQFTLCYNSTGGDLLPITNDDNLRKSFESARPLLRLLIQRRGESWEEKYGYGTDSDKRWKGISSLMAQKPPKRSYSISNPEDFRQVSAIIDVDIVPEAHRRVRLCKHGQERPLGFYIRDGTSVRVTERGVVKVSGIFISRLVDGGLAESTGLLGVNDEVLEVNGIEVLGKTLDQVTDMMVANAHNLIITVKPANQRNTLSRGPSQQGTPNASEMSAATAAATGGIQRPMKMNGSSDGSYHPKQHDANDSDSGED

Sequence of Cell division control protein 42 homolog (Caenorhabditis elegans), Q05062 T17N (Q05062 whole entry T17N): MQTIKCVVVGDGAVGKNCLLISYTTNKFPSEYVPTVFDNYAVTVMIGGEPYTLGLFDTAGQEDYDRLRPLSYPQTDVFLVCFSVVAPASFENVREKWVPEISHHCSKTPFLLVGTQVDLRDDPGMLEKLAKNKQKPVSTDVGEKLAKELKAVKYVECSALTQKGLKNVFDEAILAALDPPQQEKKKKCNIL

Cell division control protein 42 homolog (Caenorhabditis elegans), Q05062 T17N
effect of a mutation on the interaction: disrupting interaction
